Test results reported in article PMC6239178, “The binding of Class II sRNA MgrR to two different sites on matchmaker protein Hfq enables efficient competition for Hfq and annealing to regulated mRNAs”.
Substitutions are numbered along the chain they refer to.

Key:
[1] = target: T1, Hfq wt (Escherichia coli, UniProt P0A6X3 1-102); experiment: filter binding; 32P-U18 complex displaced by MgrR; HBB buffer (composition not in material); competition and dissociation at RT; Kd gelshift 0.1 nM 32P-MgrR, 2 h RT, 5% native gel in TBM (89 mM Tris, 89 mM borat); conditions: protein: recombinant; pET15b); chain copies: 6; label: 32P or unlabeled; single-stranded
T1 sequence (P0A6X3 whole entry): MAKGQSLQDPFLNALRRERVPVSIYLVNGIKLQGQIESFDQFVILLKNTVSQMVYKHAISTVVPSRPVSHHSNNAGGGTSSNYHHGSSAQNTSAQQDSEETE

[2] = target: T1, Hfq wt; experiment: EMSA; ternary complex with MgrR, annealing not markedly affected; HBB buffer (composition not in material); competition and dissociation at RT; Kd gelshift 0.1 nM 32P-MgrR, 2 h RT, 5% native gel in TBM (89 mM Tris, 89 mM borat); conditions: protein: recombinant; pET15b); chain copies: 6
[3] = target: T1, Hfq wt; experiment: EMSA; ternary complex with MgrR, unaffected; HBB buffer (composition not in material); competition and dissociation at RT; Kd gelshift 0.1 nM 32P-MgrR, 2 h RT, 5% native gel in TBM (89 mM Tris, 89 mM borat); conditions: protein: recombinant; pET15b); chain copies: 6
[4] = target: T1, Hfq wt; experiment: filter binding; 32P-A27 complex displaced by MgrR; HBB buffer (composition not in material); competition and dissociation at RT; Kd gelshift 0.1 nM 32P-MgrR, 2 h RT, 5% native gel in TBM (89 mM Tris, 89 mM borat); conditions: protein: recombinant; pET15b); chain copies: 6; label: 32P or unlabeled; single-stranded

Does UUUUUUUUUUUUUUUUUU (ssRNA) [U18] bind [1]?
Result: binds

B1: eptB133_AU1_v1 (structured_RNA)
RNA: GCGCGUGUAGACCGCACUUAUCUGACUACCUCCGCACUUUUUCCCUGCCGGGCCUGAAAAGCCACUAAGCAGGGUGUUAUCACCUGUUUGUCCAGGGUUUGUUUGCAUGAGAUACAUCAAAUCGAUUACACAG
Does B1 bind [2]?
Result: binds

B2: eptB133_AU1_v2 (structured_RNA)
RNA: B1 RNA with A11U, C12U, C13U, G14U, C15U, A16U, A20U
Does B2 bind [2]?
Result: binds

B3: ygdQ145_AU3 (structured_RNA)
RNA: GCUUCAUUUUUUUGGCAGGGCUUUUUAGAUGUUAUUUGCAUGGAUAACCGAUCCUAACGCCUGGCUUGCGCUCGGUACGCUGACGCUGCUGGAGAUCGUUCUUGGGAUCGACAAUGUGCUGGUCCUCUCUCUGGUGGUGGCAAAG
Does B3 bind [3]?
Result: binds

Does AAAAAAAAAAAAAAAAAAAAAAAAAAA (ssRNA) [A27] bind [4]?
Result: binds
